These results are taken from patent CN116284426A (SUNSHINE GUOJIAN PHARMACEUTICAL SHANGHAI CO LTD, dated 2023).

The target of experiment [1] is T1, CD3ε-ECD-his (UniProt P07766 23-126).
T1 construct: extracellular domain; also called CD3ε蛋白
Briefly: ELISA, CD3ε-ECD-his coated at 1 ug/mL, anti-human IgG Fab HRP (Table 14). On the technique in general: ELISA stands for enzyme-linked immunosorbent assay.

For experiment [2], the target named is T2, GUCY2C on tumour cells (CW2, CW2-GCC#1, T84) (human, UniProt P25092 24-1073). The experiment is described as follows: cell-based or functional assay.
The target in experiment [3] is T3, GUCY2C-His蛋白 (human GUCY2C extracellular region with C-terminal 6xHis) (human, UniProt P25092 24-430).
T3 construct: extracellular domain; Made in HEK-293F with an unspecified N-terminal signal peptide; also called 人GUCY2C-His蛋白
The experiment is described as follows: ELISA, GUCY2C-His coated, anti-human IgG Fab HRP (Table 10).

Experiment [4] concerns the target T4, GUCY2C-Fc蛋白 (human GUCY2C extracellular region fused to human IgG1 Fc) (human, UniProt P25092 24-430).
T4 construct: extracellular domain; Made in HEK-293F with an unspecified N-terminal signal peptide; also called 人GUCY2C-Fc蛋白; not shown: human IgG1 Fc at the C-terminus in place of the 6xHis tag
Briefly: ELISA, GUCY2C-Fc coated, anti-human IgG Fab HRP (Table 12).

In experiment [5] the target is T4, GUCY2C-Fc蛋白 (human GUCY2C extracellular …). The experiment is described as follows: ELISA, GUCY2C-Fc coated, anti-human IgG Fab HRP (Table 11).
Experiment [6] deals with T3, GUCY2C-His蛋白 (human GUCY2C …). The experiment is described as follows: ELISA, GUCY2C-His coated, anti-human IgG Fab HRP (Table 9).
Experiment [7] has the same target. Briefly: ELISA, GUCY2C-His coated, anti-human IgG Fab HRP (Table 17).
Experiment [8] addresses T1, CD3ε-ECD-his. The experiment is described as follows: ELISA, CD3ε-ECD-his coated; reference SP34.
Experiment [9] addresses T1, CD3ε-ECD-his. The experiment is described as follows: ELISA, CD3ε-ECD-his coated at 1 ug/mL (Table 19).
The target of experiment [10] is T2, GUCY2C on tumour cells (CW2, CW2-GCC#1, …). Briefly: cell-based or functional assay. This is another data set of the same source.
Experiment [11] deals with T4, GUCY2C-Fc蛋白 (human GUCY2C extracellular …). Briefly: ELISA, GUCY2C-Fc coated, anti-human IgG Fab HRP (Table 18).

T4 sequence (P25092 24-430 limits assumed): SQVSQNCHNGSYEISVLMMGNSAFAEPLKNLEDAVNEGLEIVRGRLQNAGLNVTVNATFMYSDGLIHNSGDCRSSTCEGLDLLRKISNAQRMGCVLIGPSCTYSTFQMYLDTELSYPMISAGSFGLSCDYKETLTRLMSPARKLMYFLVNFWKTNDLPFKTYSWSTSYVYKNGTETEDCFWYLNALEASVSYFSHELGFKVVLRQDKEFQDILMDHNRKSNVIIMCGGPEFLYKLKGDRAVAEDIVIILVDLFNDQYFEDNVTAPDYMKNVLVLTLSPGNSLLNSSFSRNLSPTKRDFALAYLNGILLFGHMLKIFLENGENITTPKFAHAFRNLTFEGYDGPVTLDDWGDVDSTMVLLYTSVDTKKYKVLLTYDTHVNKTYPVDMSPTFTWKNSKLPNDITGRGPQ
T3 sequence (P25092 other isoform, or with tags, fused parts or gaps): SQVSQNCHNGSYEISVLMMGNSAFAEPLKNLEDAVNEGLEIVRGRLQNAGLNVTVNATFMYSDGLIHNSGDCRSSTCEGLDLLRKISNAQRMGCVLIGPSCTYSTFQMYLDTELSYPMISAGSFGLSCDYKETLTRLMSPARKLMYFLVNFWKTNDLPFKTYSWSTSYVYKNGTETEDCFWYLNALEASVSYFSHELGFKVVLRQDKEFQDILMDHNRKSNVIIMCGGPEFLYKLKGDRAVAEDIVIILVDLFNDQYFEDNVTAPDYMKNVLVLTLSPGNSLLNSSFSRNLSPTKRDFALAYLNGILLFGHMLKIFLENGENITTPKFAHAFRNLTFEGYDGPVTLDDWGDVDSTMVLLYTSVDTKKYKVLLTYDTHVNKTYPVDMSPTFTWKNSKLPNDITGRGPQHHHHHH
T1 sequence (P07766 other isoform, or with tags, fused parts or gaps): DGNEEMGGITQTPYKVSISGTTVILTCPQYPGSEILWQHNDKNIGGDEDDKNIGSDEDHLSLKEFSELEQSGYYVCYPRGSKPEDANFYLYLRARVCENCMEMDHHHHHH
T2 sequence (P25092 24-1073): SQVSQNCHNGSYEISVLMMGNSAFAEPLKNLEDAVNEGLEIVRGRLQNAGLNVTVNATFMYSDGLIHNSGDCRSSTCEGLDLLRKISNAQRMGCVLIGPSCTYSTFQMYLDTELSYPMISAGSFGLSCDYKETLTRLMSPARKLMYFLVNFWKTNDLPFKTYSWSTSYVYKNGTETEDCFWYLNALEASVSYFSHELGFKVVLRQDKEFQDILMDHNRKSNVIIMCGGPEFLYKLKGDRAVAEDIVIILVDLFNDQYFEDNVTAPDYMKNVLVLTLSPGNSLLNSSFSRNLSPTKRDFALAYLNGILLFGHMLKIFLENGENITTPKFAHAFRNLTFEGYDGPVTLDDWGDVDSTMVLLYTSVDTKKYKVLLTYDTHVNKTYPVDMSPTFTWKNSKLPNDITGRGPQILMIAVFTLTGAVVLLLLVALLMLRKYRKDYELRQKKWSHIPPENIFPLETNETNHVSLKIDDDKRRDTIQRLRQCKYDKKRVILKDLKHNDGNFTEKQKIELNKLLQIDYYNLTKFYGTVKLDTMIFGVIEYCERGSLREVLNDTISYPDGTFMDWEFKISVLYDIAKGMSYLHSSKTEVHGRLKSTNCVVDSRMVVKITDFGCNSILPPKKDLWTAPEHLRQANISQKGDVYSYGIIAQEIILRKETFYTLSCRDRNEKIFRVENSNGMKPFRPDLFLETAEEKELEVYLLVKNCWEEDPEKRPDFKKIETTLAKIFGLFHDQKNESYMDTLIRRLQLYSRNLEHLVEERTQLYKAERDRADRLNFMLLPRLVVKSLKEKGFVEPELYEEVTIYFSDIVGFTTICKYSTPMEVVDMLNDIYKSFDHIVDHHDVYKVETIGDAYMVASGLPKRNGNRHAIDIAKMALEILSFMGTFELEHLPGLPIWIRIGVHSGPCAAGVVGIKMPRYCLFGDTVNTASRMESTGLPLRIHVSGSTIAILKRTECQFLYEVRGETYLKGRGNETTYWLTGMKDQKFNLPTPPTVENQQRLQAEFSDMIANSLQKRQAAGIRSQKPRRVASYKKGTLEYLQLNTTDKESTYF

B1: 32H2-SP4VHL-L (bispecific antibody, human IgG1, kappa)
heavy: not shown
light: DVVMTQSPLSLPVTLGQPASISCRSSQSLVYNNGNTYLHWYQQRPGQSPRLLIYKVSNRFSGVPDRFSGSGSGTDFTLKISRVEAEDVGVYFCSQSTHVPLTFGQGTKVEIKRTVAAPSVFIFPPSDEQLKSGTASVVCLLNNFYPREAKVQWKVDNALQSGNSQESVTEQDSKDSTYSLSSTLTLSKADYEKHKVYACEVTHQGLSSPVTKSFNRGECGGGGSGGGGSGGGGSEVQLVESGGGLVQPGGSLRLSCAASGFTFNTYAMNWVRQAPGKGLEWVARIRSKYNNYATYYADSVKDRFTISRDDSKNTLYLQMNSLRAEDTAVYYCVRHGNFGNSYVSWFAYWGQGTLVTVSSGGGGSGGGGSGGGGSGGGGSQAVVTQEPSLTVSPGGTVTLTCRSSTGAVTTSNYANWVQQKPGQAPRGLIGGTNKRAPGVPARFSGSLLGGKAALTLSGAQPEDEAEYYCALWYSNLWVFGQGTKVEIK
notes: also called 结构19
What is called EC50 is the concentration at which the effect is half-maximal. Read a high EC50 as lower potency in that assay. Take B1: the EC50 with CD3ε-ECD-his [1] is 1.09 nM; in [3], 0.49 nM; in [4] it was 0.43 nM; in experiment [5], 0.38 nM; in [6], 0.49 nM. For the same molecule, the “IC50 of T-cell-mediated killing of CW2 cells (CTG, E:T 5:1, 96 h)” value in [2] is 0.08 nM.

B2: 32H2CH1-SP4VHL-hik (bispecific antibody, human IgG1, kappa)
heavy 1: EVQLVESGGGLVKPGGSLRLSCAASGFSFRTYAMSWVRQAPGKSLEWVATISSGSSYIYYPDSVKGRFTVSRDNAKNSLYLQMNSLRAEDTAVYYCTCYRMETFEYWGQGTLVTVSSASTKGPSVFPLAPSSKSTSGGTAALGCLVKDYFPEPVTVSWNSGALTSGVHTFPAVLQSSGLYSLSSVVTVPSSSLGTQTYICNVNHKPSNTKVDKKVEPKSCGGGGSGGGGSGGGGSEVQLVESGGGLVQPGGSLRLSCAASGFTFNTYAMNWVRQAPGKGLEWVARIRSKYNNYATYYADSVKDRFTISRDDSKNTLYLQMNSLRAEDTAVYYCVRHGNFGNSYVSWFAYWGQGTLVTVSSGGGGSGGGGSGGGGSGGGGSQAVVTQEPSLTVSPGGTVTLTCRSSTGAVTTSNYANWVQQKPGQAPRGLIGGTNKRAPGVPARFSGSLLGGKAALTLSGAQPEDEAEYYCALWYSNLWVFGQGTKVEIKGGGSDKTHTCPPCPAPELLGGPSVFLFPPKPKDTLMISRTPEVTCVVVDVSHEDPEVKFNWYVDGVEVHNAKTKPREEQYNSTYRVVSVLTVLHQDWLNGKEYKCKVSNKALPAPIEKTISKAKGQPREPQVYTLPPCREEMTKNQVSLSCAVKGFYPSDIAVEWESNGQPENNYKTTPPVLDSDGSFFLVSKLTVDKSRWQQGNVFSCSVMHEALHNHYTQKSLSLSPGK
heavy 2: not shown
light: DVVMTQSPLSLPVTLGQPASISCRSSQSLVYNNGNTYLHWYQQRPGQSPRLLIYKVSNRFSGVPDRFSGSGSGTDFTLKISRVEAEDVGVYFCSQSTHVPLTFGQGTKVEIKRTVAAPSVFIFPPSDEQLKSGTASVVCLLNNFYPREAKVQWKVDNALQSGNSQESVTEQDSKDSTYSLSSTLTLSKADYEKHKVYACEVTHQGLSSPVTKSFNRGEC
notes: also called 结构8
B2: the EC50 was found to be 0.428 nM in experiment [7], 1.92 nM with CD3ε-ECD-his [9] and 0.869 nM in [11]. In addition, the “fold weaker affinity than SP34” value with CD3ε-ECD-his [8] was around 10 fold. Moreover, the “IC50 of T-cell-mediated killing of T84 cells” value in [10] stood at 0.002 nM.

B3: SP4VHL-32H2-hik (bispecific antibody)
chain 1: EVQLVESGGGLVQPGGSLRLSCAASGFTFNTYAMNWVRQAPGKGLEWVARIRSKYNNYATYYADSVKDRFTISRDDSKNTLYLQMNSLRAEDTAVYYCVRHGNFGNSYVSWFAYWGQGTLVTVSSGGGGSGGGGSGGGGSGGGGSQAVVTQEPSLTVSPGGTVTLTCRSSTGAVTTSNYANWVQQKPGQAPRGLIGGTNKRAPGVPARFSGSLLGGKAALTLSGAQPEDEAEYYCALWYSNLWVFGQGTKVEIKGGGGSGGGGSGGGGSEVQLVESGGGLVKPGGSLRLSCAASGFSFRTYAMSWVRQAPGKSLEWVATISSGSSYIYYPDSVKGRFTVSRDNAKNSLYLQMNSLRAEDTAVYYCTCYRMETFEYWGQGTLVTVSSASTKGPSVFPLAPSSKSTSGGTAALGCLVKDYFPEPVTVSWNSGALTSGVHTFPAVLQSSGLYSLSSVVTVPSSSLGTQTYICNVNHKPSNTKVDKKVEPKSCDKTHTCPPCPAPELLGGPSVFLFPPKPKDTLMISRTPEVTCVVVDVSHEDPEVKFNWYVDGVEVHNAKTKPREEQYNSTYRVVSVLTVLHQDWLNGKEYKCKVSNKALPAPIEKTISKAKGQPREPQVYTLPPCREEMTKNQVSLSCAVKGFYPSDIAVEWESNGQPENNYKTTPPVLDSDGSFFLVSKLTVDKSRWQQGNVFSCSVMHEALHNHYTQKSLSLSPGK
chain 2: not shown
chain 3: B2 light
For B3, the EC50 turned out to be 0.733 nM in experiment [7], 4.02 nM with CD3ε-ECD-his [9] and 1.08 nM in experiment [11]. Further, the “fold weaker affinity than SP34” value with CD3ε-ECD-his [8] is around 10 fold.

B4: SP4VHL-32H2-KIH (bispecific antibody)
chain 1: not shown
chain 2: EVQLVESGGGLVKPGGSLRLSCAASGFSFRTYAMSWVRQAPGKSLEWVATISSGSSYIYYPDSVKGRFTVSRDNAKNSLYLQMNSLRAEDTAVYYCTCYRMETFEYWGQGTLVTVSSASTKGPSVFPLAPSSKSTSGGTAALGCLVKDYFPEPVTVSWNSGALTSGVHTFPAVLQSSGLYSLSSVVTVPSSSLGTQTYICNVNHKPSNTKVDKKVEPKSCDKTHTCPPCPAPELLGGPSVFLFPPKPKDTLMISRTPEVTCVVVDVSHEDPEVKFNWYVDGVEVHNAKTKPREEQYNSTYRVVSVLTVLHQDWLNGKEYKCKVSNKALPAPIEKTISKAKGQPREPQVYTLPPCREEMTKNQVSLSCAVKGFYPSDIAVEWESNGQPENNYKTTPPVLDSDGSFFLVSKLTVDKSRWQQGNVFSCSVMHEALHNHYTQKSLSLSPGK
chain 3: B2 light
For B4, the EC50 in [7] was determined as 0.405 nM; in the experiment with CD3ε-ECD-his [9] it was 2.37 nM; in experiment [11], 0.752 nM. Further, in the experiment with CD3ε-ECD-his [8], the “fold weaker affinity than SP34” value was around 10 fold.

B5: 32H2-SP4VHL (bispecific antibody, human IgG1, kappa)
heavy: not shown
light: B2 light
notes: also called 结构1
For the molecule B5, the EC50 turned out to be 0.3 nM with CD3ε-ECD-his [1], 0.26 nM in experiment [3] and 0.29 nM in [4].

B6: 32H2CH1-SP4VHL-KIH (bispecific antibody, human IgG1, kappa)
heavy 1: not shown
heavy 2: B4 chain 2
light: B2 light
notes: also called 结构9
Take B6: the EC50 came to 0.264 nM in [7], 1.31 nM with CD3ε-ECD-his [9] and 0.681 nM in experiment [11]. Besides, the “fold weaker affinity than SP34” value with CD3ε-ECD-his [8] is around 10 fold. Besides, the “IC50 of T-cell-mediated killing of T84 cells” value in experiment [10] came to 0.366 nM.

B7: SP4VHL-32H2-L (bispecific antibody, human IgG1, kappa)
heavy: not shown
light: EVQLVESGGGLVQPGGSLRLSCAASGFTFNTYAMNWVRQAPGKGLEWVARIRSKYNNYATYYADSVKDRFTISRDDSKNTLYLQMNSLRAEDTAVYYCVRHGNFGNSYVSWFAYWGQGTLVTVSSGGGGSGGGGSGGGGSGGGGSQAVVTQEPSLTVSPGGTVTLTCRSSTGAVTTSNYANWVQQKPGQAPRGLIGGTNKRAPGVPARFSGSLLGGKAALTLSGAQPEDEAEYYCALWYSNLWVFGQGTKVEIKGGGGSGGGGSGGGGSDVVMTQSPLSLPVTLGQPASISCRSSQSLVYNNGNTYLHWYQQRPGQSPRLLIYKVSNRFSGVPDRFSGSGSGTDFTLKISRVEAEDVGVYFCSQSTHVPLTFGQGTKVEIKRTVAAPSVFIFPPSDEQLKSGTASVVCLLNNFYPREAKVQWKVDNALQSGNSQESVTEQDSKDSTYSLSSTLTLSKADYEKHKVYACEVTHQGLSSPVTKSFNRGEC
notes: also called 结构18
Consider B7, for which the EC50 in the experiment with CD3ε-ECD-his [1] was 1.16 nM; in experiment [3], 1.21 nM; in experiment [4], 0.78 nM.

B8: SP34 (humanized anti-CD3 monoclonal antibody) (antibody, human IgG1, kappa, V domains shown)
VH: EVQLVESGGGLVQPGGSLRLSCAASGFTFNTYAMNWVRQAPGKGLEWVARIRSKYNNYATYYADSVKDRFTISRDDSKNTLYLQMNSLRAEDTAVYYCVRHGNFGNSYVSWFAYWGQGTLVTVSS
VL: QAVVTQEPSLTVSPGGTVTLTCRSSTGAVTTSNYANWVQQKPGQAPRGLIGGTNKRAPGVPARFSGSLLGGKAALTLSGAQPEDEAEYYCALWYSNLWVFGQGTKVEIKR
notes: Full-length humanized IgG1/kappa made in HEK293F and purified on Protein A; also called SP34-HC/SP34-LC
Regarding B8, in the experiment with CD3ε-ECD-his [9], the EC50 came to 0.154 nM.
